{
  "source": "paper PMC6969876",
  "about": "“NADPH biosensor-based identification of an alcohol dehydrogenase variant with improved catalytic properties caused by a single charge reversal at the protein surface” (AMB Express, 2020)",
  "proteins": {"B1": {"name": "NADPH-dependent alcohol dehydrogenase of Lactobacillus brevis, wild type (LbADH^WT), with N-terminal Strep-tag II (enzyme, UniProt Q84EX5 1-252, looked up)", "chain": "MSNRLDGKVAIITGGTLGIGLAIATKFVEEGAKVMITGRHSDVGEKAAKSVGTPDQIQFFQHDSSDEDGWTKLFDATEKAFGPVSTLVNNAGIAVNKSVEETTTAEWRKLLAVNLDGVFFGTRLGIQRMKNKGLGASIINMSSIEGFVGDPSLGAYNASKGAVRIMSKSAALDCALKDYDVRVNTVHPGYIKTPLVDDLPGAEEAMSQRTKTPMGHIGEPNDIAYICVYLASNESKFATGSEFVVDGGYTAQ", "notes": "NADPH-dependent (R-specific) alcohol dehydrogenase of Lactobacillus brevis; 251 amino acid residues and 26.6 kDa per subunit as printed; calculated mass of the monomer with StrepTag-II 28.2 kDa; The plasmid pASK-IBA5plus-Lbadh^WT was a gift (Prof. W. Kroutil); not shown: Strep-tag II, N-terminal, kept"}},
  "molecular_target": "the molecule itself",
  "experiment": "SEC; Superdex 200 increase 10/300 GL, buffer A (50 mM triethanolamine hydrochloride, 1 mM MgCl2, pH 7.0), 0.75 mL/min; apparent native mass from a calibration curve with carbonic anhydrase, bovine serum albumin, alcohol dehydrogenase and beta-amylase; affinity-purified protein loaded",
  "data": [
    {"protein": "B1", "values": [
      {"measurement": "stoichiometry N", "value": 4}
    ]}
  ]
}
